Biological target: T1, Spt6-YW-FLAG (Y255A, W257A) (S. cerevisiae, UniProt P23615 1-1451, Y255A | W257A)
T1 sequence (looked up): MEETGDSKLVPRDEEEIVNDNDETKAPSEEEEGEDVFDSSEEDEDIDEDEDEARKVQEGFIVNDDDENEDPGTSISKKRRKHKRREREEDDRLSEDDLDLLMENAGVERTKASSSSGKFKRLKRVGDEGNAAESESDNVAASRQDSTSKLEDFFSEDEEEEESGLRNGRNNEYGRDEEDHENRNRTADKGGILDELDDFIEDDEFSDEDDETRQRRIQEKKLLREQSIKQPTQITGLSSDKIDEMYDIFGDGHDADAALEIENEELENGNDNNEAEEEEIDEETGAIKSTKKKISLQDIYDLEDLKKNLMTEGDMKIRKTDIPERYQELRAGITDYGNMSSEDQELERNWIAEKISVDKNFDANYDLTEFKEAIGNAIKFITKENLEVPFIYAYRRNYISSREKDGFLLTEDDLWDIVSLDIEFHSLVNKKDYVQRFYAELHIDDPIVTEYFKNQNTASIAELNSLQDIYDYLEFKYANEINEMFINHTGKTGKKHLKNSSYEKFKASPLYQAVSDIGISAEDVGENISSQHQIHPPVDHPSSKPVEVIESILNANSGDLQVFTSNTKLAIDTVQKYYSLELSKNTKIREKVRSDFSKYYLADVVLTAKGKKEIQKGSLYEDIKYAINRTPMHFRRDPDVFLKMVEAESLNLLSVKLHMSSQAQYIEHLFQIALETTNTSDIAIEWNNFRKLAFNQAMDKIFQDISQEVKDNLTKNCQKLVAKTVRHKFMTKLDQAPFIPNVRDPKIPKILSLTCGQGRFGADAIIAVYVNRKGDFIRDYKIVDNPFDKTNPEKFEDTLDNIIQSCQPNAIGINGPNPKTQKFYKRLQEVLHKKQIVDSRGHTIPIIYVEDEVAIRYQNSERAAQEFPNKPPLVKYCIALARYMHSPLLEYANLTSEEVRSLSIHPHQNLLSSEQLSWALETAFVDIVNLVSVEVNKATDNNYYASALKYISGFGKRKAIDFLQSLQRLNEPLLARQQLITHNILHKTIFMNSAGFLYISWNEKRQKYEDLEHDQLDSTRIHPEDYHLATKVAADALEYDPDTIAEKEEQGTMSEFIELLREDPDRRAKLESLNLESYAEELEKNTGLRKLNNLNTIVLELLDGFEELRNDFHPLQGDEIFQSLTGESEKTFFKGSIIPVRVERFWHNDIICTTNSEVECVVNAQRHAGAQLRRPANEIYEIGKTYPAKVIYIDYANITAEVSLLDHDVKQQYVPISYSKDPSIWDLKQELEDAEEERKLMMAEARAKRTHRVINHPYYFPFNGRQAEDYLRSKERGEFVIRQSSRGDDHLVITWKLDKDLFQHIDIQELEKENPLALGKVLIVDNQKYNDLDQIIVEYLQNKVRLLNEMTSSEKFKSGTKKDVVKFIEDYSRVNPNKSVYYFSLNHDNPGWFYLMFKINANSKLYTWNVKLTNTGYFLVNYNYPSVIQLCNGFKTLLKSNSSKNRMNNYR
Test: co-IP

B1: Spn1 (natural protein, S. cerevisiae, UniProt Q06505 1-410, looked up)
chain: MSTADQEQPKVVEATPEDGTASSQKSTINAENENTKQNQSMEPQETSKGTSNDTKDPDNGEKNEEAAIDENSNVEAAERKRKHISTDFSDDDLEKEEHNDQSLQPTVENRASKDRDSSATPSSRQELEEKLDRILKKPKVRRTRRDEDDLEQYLDEKILRLKDEMNIAAQLDIDTLNKRIETGDTSLIAMQKVKLLPKVVSVLSKANLADTILDNNLLQSVRIWLEPLPDGSLPSFEIQKSLFAALNDLPVKTEHLKESGLGRVVIFYTKSKRVEAQLARLAEKLIAEWTRPIIGASDNYRDKRIMQLEFDSEKLRKKSVMDSAKNRKKKSKSGEDPTSRGSSVQTLYEQAAARRNRAAAPAQTTTDYKYAPVSNLSAVPTNARAVGVGSTLNNSEMYKRLTSRLNKKHK
  fold decrease of co-IP against wild-type Spt6-FLAG: 20 fold
